Assay results published in article PMC8510540 (2021).

B1: IgG1 b12 EFTAE Fc variant (antibody, V domains shown)
VH: QVQLVQSGAEVKKPGASVKVSCQASGYRFSNFVIHWVRQAPGQRFEWMGWINPYNGNKEFSAKFQDRVTFTADTSANTAYMELRSLRSADTAVYYCARVGPYSWDDSPQDNYYMDVWGKGTTVIVSS
VL: EIVLTQSPGTLSLSPGERATFSCRSSHSIRSRRVAWYQHKPGQAPRLVIHGVSNRASGISDRFSGSGSGTDFTLTITRVEPEDFALYYCQVYGASSYTFGQGTKLERK
B2: IgG1 b12 LALA Fc variant (antibody, V domains shown)
VH: QVQLVQSGAEVKKPGASVKVSCQASGYRFSNFVIHWVRQAPGQRFEWMGWINPYNGNKEFSAKFQDRVTFTADTSANTAYMELRSLRSADTAVYYCARVGPYSWDDSPQDNYYMDVWGKGTTVIVSS
VL: EIVLTQSPGTLSLSPGERATFSCRSSHSIRSRRVAWYQHKPGQAPRLVIHGVSNRASGISDRFSGSGSGTDFTLTITRVEPEDFALYYCQVYGASSYTFGQGTKLERK
B3: IgG1 b12 (unmodified Fc) (antibody, V domains shown)
VH: QVQLVQSGAEVKKPGASVKVSCQASGYRFSNFVIHWVRQAPGQRFEWMGWINPYNGNKEFSAKFQDRVTFTADTSANTAYMELRSLRSADTAVYYCARVGPYSWDDSPQDNYYMDVWGKGTTVIVSS
VL: EIVLTQSPGTLSLSPGERATFSCRSSHSIRSRRVAWYQHKPGQAPRLVIHGVSNRASGISDRFSGSGSGTDFTLTITRVEPEDFALYYCQVYGASSYTFGQGTKLERK
B4: IgG1 b12 EG Fc variant (antibody, V domains shown)
VH: QVQLVQSGAEVKKPGASVKVSCQASGYRFSNFVIHWVRQAPGQRFEWMGWINPYNGNKEFSAKFQDRVTFTADTSANTAYMELRSLRSADTAVYYCARVGPYSWDDSPQDNYYMDVWGKGTTVIVSS
VL: EIVLTQSPGTLSLSPGERATFSCRSSHSIRSRRVAWYQHKPGQAPRLVIHGVSNRASGISDRFSGSGSGTDFTLTITRVEPEDFALYYCQVYGASSYTFGQGTKLERK
B5: IgG1 b12 KA Fc variant (antibody, V domains shown)
VH: QVQLVQSGAEVKKPGASVKVSCQASGYRFSNFVIHWVRQAPGQRFEWMGWINPYNGNKEFSAKFQDRVTFTADTSANTAYMELRSLRSADTAVYYCARVGPYSWDDSPQDNYYMDVWGKGTTVIVSS
VL: EIVLTQSPGTLSLSPGERATFSCRSSHSIRSRRVAWYQHKPGQAPRLVIHGVSNRASGISDRFSGSGSGTDFTLTITRVEPEDFALYYCQVYGASSYTFGQGTKLERK

Tests used:
[1] = target: HIV-1_(YU-2) gp140 trimer (HIV-1 YU-2); test: BLI; kinetic
[2] = target: HIV-1_(YU-2) gp140 trimer (HIV-1 YU-2); test: BLI; equilibrium

Binder | Kd [1] | Kd [2]
B1 | 2.78 nM | 1.93 nM
B2 | 2.06 nM | 2.04 nM
B3 | 1.72 nM | 2.18 nM
B4 | 2.26 nM | 0.9 nM
B5 | 2.56 nM | 2.95 nM
